These results are taken from patent US20160312197.

Common to all, as to assay: cell_activity
Series [1] deals with CCR5 ZFN, L7a linker (FokI) (Artificial Sequence).
The subject of series [2] is CCR5 ZFN, L6a linker (FokI) (Artificial Sequence).
Series [3] deals with CCR5 ZFN SBS 8266, wild-type ZC linker (FokI) (Artificial Sequence) (UniProt P14870).
In series [4] the test system is mROSA-targeted ZFN pair, Wt/L7a linkers (Artificial Sequence). The conditions noted are these: Neuro2A, mock 0.4.
The subject of series [5] is mROSA-targeted ZFN pair, Wt/Wt linkers (Artificial Sequence). Conditions: Neuro2A, mock 0.4.
Series [6] has as its system rat IgM-targeted ZFN pair, one L7a linker (Artificial Sequence). The conditions noted are these: rat C6 cells.
Series [7] concerns rat IgM-targeted ZFN pair, ZC linkers (Artificial Sequence). The conditions noted are these: rat C6 cells.
Setting [8] is: no cleavage at this spacing, binding not measured.

Chain of CCR5 ZFN SBS 8266, wild-type ZC linker (FokI) (Artificial Sequence) (P14870 other isoform, or with tags, fused parts or gaps): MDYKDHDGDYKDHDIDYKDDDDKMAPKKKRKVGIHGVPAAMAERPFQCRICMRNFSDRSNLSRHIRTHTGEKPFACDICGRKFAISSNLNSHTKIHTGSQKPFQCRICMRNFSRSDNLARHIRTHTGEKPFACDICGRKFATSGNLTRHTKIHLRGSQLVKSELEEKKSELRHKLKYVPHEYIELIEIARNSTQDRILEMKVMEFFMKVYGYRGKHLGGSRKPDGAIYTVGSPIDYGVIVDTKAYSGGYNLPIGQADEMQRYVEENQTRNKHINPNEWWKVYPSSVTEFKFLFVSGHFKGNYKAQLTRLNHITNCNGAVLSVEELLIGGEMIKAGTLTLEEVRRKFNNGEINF
Chain of CCR5 ZFN, L6a linker (FokI) (Artificial Sequence) (chain, as listed by the source): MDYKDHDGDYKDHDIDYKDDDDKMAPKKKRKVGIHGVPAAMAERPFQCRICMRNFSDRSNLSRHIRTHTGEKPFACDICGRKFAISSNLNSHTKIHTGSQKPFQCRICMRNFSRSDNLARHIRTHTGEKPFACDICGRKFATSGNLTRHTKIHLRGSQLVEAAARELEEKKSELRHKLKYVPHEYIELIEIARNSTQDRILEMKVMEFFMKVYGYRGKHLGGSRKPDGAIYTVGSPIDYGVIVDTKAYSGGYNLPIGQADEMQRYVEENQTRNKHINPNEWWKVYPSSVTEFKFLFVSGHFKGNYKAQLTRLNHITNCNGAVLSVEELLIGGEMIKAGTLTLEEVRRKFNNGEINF
Chain of CCR5 ZFN, L7a linker (FokI) (Artificial Sequence) (chain, as listed by the source): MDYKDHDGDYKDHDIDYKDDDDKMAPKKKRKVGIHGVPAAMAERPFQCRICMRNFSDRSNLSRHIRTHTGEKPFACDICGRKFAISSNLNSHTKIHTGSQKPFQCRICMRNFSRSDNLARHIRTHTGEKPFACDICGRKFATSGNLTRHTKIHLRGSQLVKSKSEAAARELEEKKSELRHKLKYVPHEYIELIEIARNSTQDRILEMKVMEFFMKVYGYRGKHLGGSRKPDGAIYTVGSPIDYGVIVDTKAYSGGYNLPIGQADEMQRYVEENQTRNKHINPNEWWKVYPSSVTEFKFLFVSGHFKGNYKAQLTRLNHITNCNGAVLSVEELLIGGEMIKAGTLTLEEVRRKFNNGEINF

In the case of CCR5 ZFN sites, 4 bp gap, the activity stood at 0 % NHEJ in series [1] (setting [8]); 0 % NHEJ in series [2] (setting [8]); 1.2 % NHEJ in series [3] (ZFN pair, average of 2).
As to CCR5 ZFN sites, 5 bp gap, the activity in series [1] (setting [8]) is 0 % NHEJ; in series [2] (ZFN pair, average of 2), 39.3 % NHEJ; in series [3] (ZFN pair, average of 2) it was 35 % NHEJ.
Turning to CCR5 ZFN sites, 6 bp gap, the activity in series [1] (ZFN pair, average of 2) came to 31.8 % NHEJ; in series [2] (ZFN pair, average of 2) it was 25.4 % NHEJ; in series [3] (ZFN pair, average of 2), 11.1 % NHEJ.
In the case of CCR5 ZFN sites, 7 bp gap, the activity in series [1] (ZFN pair, average of 2) came out at 39.6 % NHEJ; in series [2] (ZFN pair, average of 2), 5.1 % NHEJ; in series [3] (setting [8]) it was 0 % NHEJ.
With CCR5 ZFN sites, 8 bp gap, the activity in series [1] (ZFN pair, average of 2) stood at 6.1 % NHEJ; in series [2] (setting [8]), 0 % NHEJ; in series [3] (setting [8]) it was 0 % NHEJ.
Take mROSA target, 6 bp gap: the results for the activity in series [4] and in series [5] were 7.5 % NHEJ and 22.6 % NHEJ, respectively.
As for rat IgM target, 6 bp gap, the activity turned out to be 2.43 % NHEJ in series [6] and 1.93 % NHEJ in series [7].
